In the nanobody polyreactivity screen of Harvey et al. (2022):

Test: yeast display, Sf9 membrane polyspecificity reagent, FACS + sequencing; frameworks hold sequencing errors
Outline: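 Using colony PCR, genes from sorted yeast display clones were amplified, then sequenced on MiSeq at 2 × 250 and filtered by CDR length. The clones had been stained with 10% biotinylated, detergent-solubilized Sf9 membrane reagent for 1 hour at 4 °C and sorted by FACS into low and high (top ~1%) gates on anti-HA and streptavidin fluorescence. Polyreactivity labels come from the gate of origin.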

Sequence | polyreactivity (PSR sort gate)
QVQLVESGGGLVQAGGSLRLSCAASGRTFGRNAMGWYRQATGKERELVAAISRSGASTYYADSVKGRFTISRDNAKNTVYLQMNSLKPEDTAVYYCAKDVWGSRYAYDYWGQGTQVTVSS | low polyreactivity
QVQLVESGGGLVQAGGSLRLSCAASGRTFGRYAMGWYRQAPGKEREFVAAIRSHGVSTYYADSVKGRFTISRDNAKNTVYLQMNSLKPEDTAVYYCAKPSTSYYQRGDYWGQGTQVTVSS | high polyreactivity
QVQLVESGGGLVQAGGSLRLSCAASGRTFGRYAMGWYRQAPGKERELVAAISWSGGSTNYADSVKGRFTISRDNAKNTVYLQMISLKPEDTAVYYCAAVTTDGVYAFDYWGQGTQVTVSS | low polyreactivity
QVQLVESGGGLVQAGGSLRLSCAASGRTFGRYAMGWYRQAPGKERELVAAISWTGGRTYYADSVKGRFTISRDNAKNTVYLQMNRLKPEDTAVYYCAALYDRNPAASRGYDSWGQGTQVTVSS | high polyreactivity
QVQLVESGGGLVQAGGSLRLSCAASGRTFGRYAMGWYRQAPGKERELVATITSGGSTNYADSVKGRFTISRDNAKNTVYLQMNSLKPEDTAVYYCAAEFSPSRWAYSEGALRYNYWGQGTQVNVSS | low polyreactivity
QVQLVESGGGLVQAGGSLRLSCAASGRTFGSNAMGWYRQAPGKERELVAAITSSADSTYYADSVKGRFTISRDNAKNTVYLQMNSLKPEDTAVYYCATDQGGYYENDYWGQGTQVTVSS | low polyreactivity
QVQLVESGGGLVQAGGSLRLSCAASGRTFGSNAMGWYRQAPGKERQLVAAITRRGGSTYYADSVKGRFTISRDNAKNTVYLQMNSLKPEDTAVYDCATDPVSTRGSDYWGQGTQVTVSS | low polyreactivity
QVQLVESGGGLVQAGGSLRLSCAASGRTFGSYAMGWYRQAPGKERELVAAISKGGGSTYYADSVKGRFTISRDNAKNTVYLQMNSLKPEDTAVYYCAKRRFDYYYYGGQGTQVTVSS | high polyreactivity
QVQLVESGGGLVQAGGSLRLSCAASGRTFGSYAMGWYRQAPGKERELVAAITWSGTGTYYADSVKGRFTISRDNAKNTVYLQMNSLKPEDTAVYYCAVYTIGYLAWYQKFDYWGQGTQVTVSS | high polyreactivity
QVQLVESGGGLVQAGGSLRLSCAASGRTFGSYGMGWYRQAPGKERELVAAISRSVGSTYYADSVKGRFTISRDNAKNSVYLQMNSLKPEDTAVYYCAVLNHRSFRYTSYYYWGQGTLVTVSS | high polyreactivity
QVQLVESGGGLVQAGGSLRLSCAASGRTFGTNAMGWYRHAPGKERELVAANSRRGGSTYYAESVKGRFTISRDNEKNTVYLQMNSLKPEDTAVYYCAKTIGLKHEDEYWGQGTQVTVSS | low polyreactivity
QVQLVESGGGLVQAGGSLRLSCAASGRTFGTNAMGWYRQAPGKERELVAAINQNGGSTYYADSVKGRFTISRDNAKNTVYLQMNSLKPEDTAVYYCAARSLDRYYHNANYYPYYYWGQGTQVTVSS | high polyreactivity
QVQLVESGGGLVQAGGSLRLSCAASGRTFGTNTMGWYRQAPGKVRELVATISSSSGSTYYADSVKGRFTISRDNAKNTVYFQMNSLKPEDTAVYYCAALCRWRYKRYDYWGQGTQVTVSS | high polyreactivity
QVQLVESGGGLVQAGGSLRLSCAASGRTFGTYALGWYRQAPGKERELVASITSGDSTNYADSVKGRFTISRDNAKNTVYLQMNRLKPEDTAVYYCNARGDVIVTPPKFSFNYEYWGQGTQVTVSS | low polyreactivity
QVQLVESGGGLVQAGGSLRLSCAASGRTFGTYAMGWSRQAPGKERELVAAITWRTGNTYYADSVKGRFTISRDNAKNTVYLQMNSLKPEDTAVYYCAKTSSGRKFYWGQGTQVTVSS | high polyreactivity
QVQLVESGGGLVQAGGSLRLSCAASGRTFGTYAMGWYRQAPGKEREFVAAISRNGGSTYYADSVKGRFTISRDNAKNTVYLQMNSLKPEDTAVYYCATGVLWSAYRYRPNLGYDDWGQGTQVTVSS | low polyreactivity

Sequence | polyreactivity (PSR sort gate)
QVQLVESGGGLVQAGGSLRLSCAASGRTFGVNAMGWYRQAPGKERELVAAITKDSGSTNYADSVKGRFTISRDNAKNTVYLQMNSLKPEDTAVYYCAARVWVRGYYWGQGTQVTVSS | low polyreactivity
QVQLVESGGGLVQAGGSLRLSCAASGRTFGVNAMGWYRQAPGKERELVASISNKGSTYYADSVKGRFTISRDNAKNTVYLQMNSLKPEDTAVYYCAADEYWSWDGTRYGVHYYYWGQGTQVTVSS | low polyreactivity
QVQLVESGGGLVQAGGSLRLSCAASGRTFGVYAMGCYRQAPGKERELVAGIRWRGGSTYYADSVKGRFTNSRDNAKNTVYLQMNSLKPEDTAVYYCAADVYLVKYDYWGQGTQVTVSS | low polyreactivity
QVQLVESGGGLVQAGGSLRLSCAASGRTFGVYAMGWYRQAPGKERELVAGIRWRGGSTYYADSVKGRFTISRDNAKNTVYLQMNSLKPEDTAVYYCAADVYLVKYDYWGQCTQVTVSS | low polyreactivity
QVQLVESGGGLVQAGGSLRLSCAASGRTFGVYAMGWYRQAPGKERELVAGIRWRGGSTYYADSVKGRFTISRDNAKNTVYLQMNSLKPEDTAVYYCAADVYLVKYDYWGQGTQVTVSS | low polyreactivity
QVQLVESGGGLVQAGGSLRLSCAASGRTFGVYAMGWYRQAPGKERELVASISRSGGSTYYADSVKGRFTISRDNAKNTVYLQMNSLKPEDTAVYYCAAVYKRGMDYWGQGTQVTVSS | high polyreactivity
QVQLVESGGGLVQAGGSLRLSCAASGRTFGVYAMGWYRQAPGKERELVAVIRVIGGSTNYADSVKGRFTISRDNAKNTVYLQMNSLKPEDTAVYYCAADQYYSSDYDYWGQGTQVTVSS | low polyreactivity
QVQLVESGGGLVQAGGSLRLSCAASGRTFGVYVMGWYIQAPGKERELVAVITISGGSTYYADSVKGRFTISRDNAKNTVYLQMNSLKPEDTAVYYCAARTYYGYDYWGQGTQVTVSS | high polyreactivity
QVQLVESGGGLVQAGGSLRLSCAASGRTFGWNAMGWYRQAPGKERELVAAISRTGNTYYADSVKGRFTISRDNAKNTVYLQMNSLKPEDTAVYYCAKGRYYTPTYFRGVDLYDYWGQGTQVTVSS | low polyreactivity
QVQLVESGGGLVQAGGSLRLSCAASGRTFGWYAMGWYRQAPGKERELVASITQRGGRTYYADSVKGRFTISRDNAKNTVYLQMNSLIPEDTAVYYCAARGATVSSRIYGYWGQGTQVTVSS | high polyreactivity
QVQLVESGGGLVQAGGSLRLSCAASGRTFGYNAMGWYREAPGKERELVPAITTSGGSTYYADSVKGRFTISRDNAKNSVYLQMNSRKPEDTAVYYCAADYSFFYRYTWLVYIFDYDYWGQGTQVTVSS | low polyreactivity
QVQLVESGGGLVQAGGSLRLSCAASGRTFGYNAMGWYRHAPGKERELVAAISSSGGSTYYADSVKGRFTISRDNAKNTVYLQMNSLKPEDTEVYYCATQGYSWAHGSDYWGQGTQVTVSS | low polyreactivity
QVQLVESGGGLVQAGGSLRLSCAASGRTFGYNAMGWYRQAPGKERELVAAIRTIGDSTYYADSVKGRFTISRDNAKNTVYLQMNSLKPEDTAVYYCAARKLRSRYDYWGQGTQVTVSS | high polyreactivity
QVQLVESGGGLVQAGGSLRLSCAASGRTFGYNAMGWYRQAPGKERELVASISYSGGSTYYADSVKGRFTISRDTAKNTVYLQMNSLKPEDTAVYYCSAKYWYWQSPSKYYYWGQGTQVTVSS | high polyreactivity
QVQLVESGGGLVQAGGSLRLSCAASGRTFGYNAMGWYRQAPGKERELVATITSSDSTYYADSVKGRFTISRDNAKNTVYLQMNSLKPEDTAVYYCAADDVGWGYYVYSYPYDYWGQGTQVTVSS | low polyreactivity
QVQLVESGGGLVQAGGSLRLSCAASGRTFGYTMGWYRQAPGKERELVAAITRSVTTYYADSVKGRFTISRDNAKNTVYLQMNSLKPEDTAVYYCAAVNTLREMYWGQGTQVTVSS | high polyreactivity
